According to the DeepSol protein solubility set:

Assay: soluble on expression in E. coli; label from the status in PepcDB or PDB records

Sequence | soluble on expression in E. coli
MSRNPFDDDYRPSAASSTMPVKSYTTMGHYSGEDEADYYEREIEKTLQESLDSTERSRRHLENSEKIGTSTAQQLLEQREKLENTEKNLDEIHRTTQMTQRNLNSLKSFFGGMFKNKFTKKPQEPTETPTVPQSKSASRLSETATNLSSGGGSATFSGPSGQRTLTESSRSAIKGTRWEAMDNQIDENLDMMSANLRNLQRLGADLGKEVDSQNEMLDRIQYKAERNDGIVRDQDKQMQKILGTGASTSQTTAESLTPSMDTSTKMSLMMKATSLWK | not soluble
MSRNRVMSIDFQQLPHAGIRSLIPYVPGKSIEELAKEKGITDIIKLASNENPLGCSPLALSVIQTMSSHYIATYPSPWNHPLMSKLASYLKVKPEQLFLSNGSDYLFNILLNCFALHTDRHILTHDYAFSTYAIQANSLQIPINSVPIGHNWEVNITDIVNACNQQTGIIFIANPNNPTGVLIQQEEIKYLLEQIPKSTLLVLDEAYYEFAASQLTVNSLDWLEEHPNLVVTRTFSKIYGMAGLRLGYAIANPSIINILKRVQLPFIVNQVALAAAYAAIDDDDFIQSSLKMNNEGMLQLQAGFNELNIKYLPSSCNFLTFDCEEDSMALYNYLLDNGIIVRPLHAYKMNNFIRVTIGTKEQNSRFLTALKNFYL | not soluble
MSRPKAIVRHGKRDTIVALLGWAGAVDRNVEKYAGIYQKKGYTTVQFTALAAVKGWGTKDGRNVDHLASTLDSVLINPSNRLVFHVFSMNGFIALTSLDSQFPELKAIEKCDGIFMDSCPACFSFSIENMQKHALVMNHVYDQLIKNSNFVLGNFYKVYKKWETARFGYQMIMDTMSIKAGLCTIEEANPFFYLLNHPHLPPILTSIFSDNDIVCSADEINLFNECAAKKSDKKRQIMATRLKDTAHVEHFRKYPKLYLEKMDEFLQKVEKLRNGGNSKL | not soluble
MSRPRAKLTGNFPGCPVESALSFLDGKWKGVILYHLINEGTLRFNELRRHIPSVTQRMLTKQLRELEEAGLISRTVFPVVPPRVDYALTPLGETMRPVISALKSWGDAHVVCKNGEKYTRAPTVAEKAA | not soluble
MSRRVEFDLSTEDHSDRRRTNTFSSDEDGVPNEVADYLVYFSRMVDEQNVPEILTLYDQAFPDLTERFFRDRMWPDENVVERIIGPGNKLFIILYKELYYRQLYARNTRGPLLVHRYESFMNYQELFSELLSSKDPIPLSLPNVWLWDIIDEFVYQFQAFCLYKANPGKRNADEVEDLINIEENQNAWNIYPVLNILYSLLSKSQIVEQLKALKEKRNPDSVADEFGQSDLYFKLGYFALIGLLRTHVLLGDYHQALKTVQYVDIDPKGIYNTVPTCLVTLHYFVGFSHLMMRNYGEATKMFVNCLLYIQRTKSVQNQQPSKKNFQYDVIGKTWDQLFHLLAICLAIQPQRIDESIASQLSERCGERMMHMANGNIDEFRNAFATGCPKFLSPTTVVYEGVNQSKEPLLRQTQSFLEGIESQMALPVLRGYLKLYTTLPTKKLASFMDVDDEHYDSFIGKLLTYKMIVNELGKEAGPSSADDDEPQTDIDFYVDRDMINIADTKVARHVGEHFIRHIQKLQEVQDVLKRLDIQKP | not soluble
MSSECDGGSKAVMNGLAPGSNGQDKDMDPTKICTGKGAVTLRASSSYRETPSSSPASPQETRQHESKPGLEPEPSSADEWRLSSSADANGNAQPSSLAAKGYRSVHPNLPSDKSQDSSPLLNEVSSSLIGTDSQAFPSVSKPSSAYPSTTIVNPTIVLLQHNREQQKRLSSLSDPVSERRVGEQDSAPTQEKPTSPGKAIEKRAKDDSRRVVKSTQDLSDVSMDEVGIPLRNTERSKDWYKTMFKQIHKLNRDDDSDLYSPRYSFSEDTKSPLSVPRSKSEMSYIDGEKVVKRSATLPLPARSSSLKSSSERNDWEPPDKKVDTRKYRAEPKSIYEYQPGKSSVLTNEKMSRDISPEEIDLKNEPWYKFFSELEFGKPTNLDKDLSLCQTELEADLEKMETLNKAPSANVPQSSAISPTPEISSETPGYIYSSNFHAVKRESDGAPGDLTSLENERQIYKSVLEGGDIPLQGLSGLKRPSSSASTKVHSRTFNTSNALGPVCKHKKPLSAAKACISEILPSKFKPRLSAPSALLQEQKSILLPSEKAQSCENLCVSGSLNDSKRGLPLQVGGSIENLLMRSRRDYDSKSSSTMSLQEYSTSGRRPCPLSRKAGMQFTMLYRDMHQINRSGLFLGSISSSSSVRDLASHFEKSSLALSRGELGPSQEGSEHIPKHTVSSRITAFEQLIQRSRSMPSLDLSGRLSKSPTPVLSRGSLTSARSAESLLESTKLHPKEMDGMNSSGVYASPTCSNMAHHALSFRGLVPSEPLSTCSDDVDRCSNISTDSREGSGGSVHGDFPKHRLNKCKGTCPASYTRFTTIRKHEQQQTSRQPEWRLDARGDKSTLLRNIYLMSPLPFRLKKPLHHHPRQPSPGDSSGLLVGQKPDLPSQPHQDQPPSGGKPVVPTRLSSRHTMARLSRSSEPSQERPTALEDYPRAINNGNSVPYSDHSLDRNNNPQSELAPSRGDSESPRHFIPADYLESTEEFIRRRHDDKEMRPARAKFDFKAQTLKELPLQKGDIVYIYKQIDQNWYEGEHHGRVGIFPRTYIELLPPAEKAQPKKLTPVQVLEYGEAIAKFNFNGDTQVEMSFRKGERITLLRQVDENWYEGRIPGTSRQGIFPITYVDVIKRPLVKNPVDYMDLPFSSSPSRSATASPQQPQAQQRRVTPDRSQTSQDLFSYQALYSYIPQNDDELELRDGDIVDVMEKCDDGWFVGTSRRTKQFGTFPGNYVKPLYL | soluble
MSSEEQDVKIVTSDDVEFIVSPKIANQSKLLADFVVLNQREPIPLKNVTSEIFKKVIEWCEYHAEDIPKPPDNVEEKRTDDIGEWDVEFLKVDKGTLFELVLAATYLDIKGLFNVTCKSIANSIKGKSPEEIRAVFNLGNETNME | not soluble
MSSIVCHPILDSQNGIATDAVIKKQRPPPLVLSRPKDLIQEACQRLVLSDQQLRRIMQSMEKSMEQGLATSTKKVAVKMLPTYVDSVPNGTESGDFLALDLGGTNFRVLHIKLQGKETKMTGKIFRVPESIMRGTGEALFDHIAGCMAKFMGENDLKDAQKLPLGFTFSFPCEQEGLTKGKLVTWTKGFKASGVEGVDVVTLLHEACHRRKDIDIDVVALLNDTVGTLMACAFQENSCQIGVIVGTGTNACYMERLDRIPKLAGYVDEHGVTPEEMIINTEWGAFGDDGALDFLRTEWDEVVDRESINPGQHLYEKMISGMYMGECARVVLEDLAKQGLLFGGNSDAISVPHCFPTKFVSEIDSDLLEDDDRTFQKTYQILEDIGVEMITANDCANVAYVCSLISTRAAHLTAAGIAMLLNRMNKKHVTVGVDGSVYRFHPTYPTLLDAKIGELIVGDIEYKLMLSEDGSGRGAALVAAVATRLKEEKLAASLSSSSSNQ | not soluble
MSSKEQKTPNEQVSEEMENTAEQQVEATQETGECVDPRVAELEVQLSDALQRERESLLRAKAEVENIRRRTELDVEKAHKFALERFSSELLPVIDNLERALDTADKTNTELISMIEGVELTLKSLLDAVGKFGIEVVGETHVPFNPEVHQAMTMLESADHEPNHVMMVMQKGYTLNGRLLRPAMVAVSKAKS | not soluble
MSSKPKYVQDQEMIPGVYWVGIVDWMVRIFHGYHTDEGSSYNSYFIDDECPTVIDSVKYPFAEEWLSRIAACCPLDKIKYVVMNHAEGDHASSLKDHYHKFTNATFVCTKKCQEHLKILYGMEKATWLIVDDKYTLKIGKRTLKFIPVPLLHWPDSTFTYCPEDKILFSNDGFGQHYATSRRWADECDVSHVMHLFKEYTANILGLFSAQMRKALEVASTVEIKYILSAHGVSWRGDAMGLAIAEYDRWSKGQHCQKKVTVVLDSMYGTTHRMALALLDGARSTGCETVLLEMTSSDITKVALHTYDSGAVAFASPTLNNTMMPSVAAALNYVRGLTLIKGKPAFAFGAFGWSNRAVPDIVAELRDGCKADVYDEKGITFKFNYTEELLEQAYNAGVDLGKRAIAYCEKNAPKQ | soluble
MSSPSFPRVLIFDSGVGGLSVYREIEARLPQLNYIYLFDNAAYPYGELTQETLIARVDTLVTRMVEQERIDLVVIACNTASTIVLPVLRAKLTIPVVGVVPAIKPASLIASKAIGLIATPATVKRQYTQELIRDFSANKNVELLGSTRLVNMAEEKLRGKPLDLEELASILQPLKNTIDVAVLGCTHFPLIKEEIQQVLGEQVQLIDSGLAIARRVQELLGIEQAVGAKQKHRIYASAPPWEESALNIKLEQLGFNPVQPFLHPI | not soluble
